A short description of this data set: soluble on expression in E. coli; label from the status in PepcDB or PDB records.
On to “MGANGASGDHKQLKEIRIGIQQSLSPLLIAKEKGWFEDAFEKEGIKVKWVEFQSGPPQFEGLAADKLDFSQVGNSPVIAGQAAGIDFKEIGLSQDGLKANGILVNQNSGIQDVKGLKGKKIAVAKGSSGFDFLYKALDQVGLSANDVTIIQLQPDEAASAFENGSVDAWSIWEPYLSLETMKHGAKILVNGESTDLYSPGFTLVRTKFSEEHPDEVVRFLKVFNKAVVWQKEHLDEAADLYSDIKDLDKKVVENVLKNTEPLNEIISDDIVKAQQETADFQFRTKAIDKKIDVKDVVDNTFIKKALEEHSSGGDQLEHHHHHH”, for which the “soluble on expression in E. coli” value is “soluble”.

For the sequence “MGCVGAGADAEGREARKVNKQIEEQLAKDKQVMRATHRLLLLGAGESGKSTIVKQMRILHINGFNEAEKREKITDIRRNVRDAMQVILRAMDEIVPKVSLDDPSTAISRDYILRITNDPEDNYPSEFYDHILTCWKDKGVMACYERSSEYQLIDCAQYFLDKVDVVRQNNYDPSEQDILRCRVMTTGIFETKFEVDKVRFHMFDVGGQRDERRKWIQCFNDVTAIIFVCASSSYNLVLWEDNTQNRLRESLALFKNIWNNRWLKTISVILFLNKQDLLSEKIKAKRYLLESFFPEFEGYNLPNDAVFDNQEDKDVVRAKYFIRGEFLRISTANSDGRHHCYPHFTCAVDTENIRRVFNDCRDIIQRIHLRQYELL”, the “soluble on expression in E. coli” value is reported as “not soluble”.

For the sequence “MGDEFRPSHEERSKMYKSNVRDQNEMRRKRREDEVQIRKNRRDEKFERNRQITVQRSLSHEETSELLKSVADGLQSMQETTIHEALTVLHENLNNTVWTIHVLVKVQILHKLSDVYCNRVISQTTRLLISRTLLKISGIDEVKYERYSSDDRCIQSLVFNISTYGSSEDILCDTFQSIACFIIRSITYRNLALDCAIVSELIDASTINMSIILHRSLMWLVFLFCEKLDRCSPHVDEIAPLLEIISNGIQSTDAMVQTDAASSCASLAEWPPIYHYMSDLKLCSKLVANLRNDKGNARPKVKAGINSIIQATGYFTEEMIDAGLLEVLKGFVNVSYMSQEVCFIISNICVEGEQTIDKLISSGVLREVARVMEASEYRSRREAAFVICHCCASANQKHLEYVVELGMLSAFTDLLTCMDVSLVSYILDAIYLLLQFGEMRLLPDNSNPVAIKLEEIGCREKLEFLCESQSVDIHARAYTIIDRFYVDDDAPLNDDPFAGYQRNNIDDTIEKMIREPIMDQPFSF”, the “soluble on expression in E. coli” value is “not soluble”.

Take “MGDGISETIDAFHRGRFHIIQPKGRGHRAGMDAMLLASLVADDRACRIADLGAGAGAAGMAVAARLEKAEVTLYERSQEMAEFARRSLELPDNAAFSARIEVLEADVTLRAKARVEAGLPDEHFHHVIMNPPYNDAGDRRTPDALKAEAHAMTEGLFEDWIRTASAIMVSGGQLSLISRPQSVAEIIAACGSRFGGLEITLIHPRPGEDAVRMLVTAIKGSRARLTFRAPLIMHET”: the “soluble on expression in E. coli” value was “soluble”.

As to “MGEETINSTQNKTRTKTTRPKAVYLWTVSDVLKWYRRHCGEYTQYEQLFAQHDITGRALLRITDSSLQRMGVTDNRDREAIWREIVKQRLKTDIMEIRDMERLNIY”, the “soluble on expression in E. coli” value is given as “soluble”.

As to “MGEGTRGEAFKKIREGYKVHIFDESYVSYINKGKGWMKVGGGIKVNPKRKRFAVVGGITISKEGITFSYSTYKKPSLNSKDIILYLRKVIKDEKTVIVMDNARIHGNEVREFLEENGVEFVYLPPYSPDKSPAEGPWAVLKKRLYSKIYTDFETLMWDATRFLRSISKRVNDLTYSVKRCGEPLDVNTE”, the “soluble on expression in E. coli” value is recorded as “soluble”.

Consider “MGEPFGGPLMGRLVSLLPSATDLIFELGLGEQLLGVSHCCDHPGAASLPVLTRSIIGSDLPQAEIDRAVSEAVRAGRALYTVDGPLLDRLRPDLVVTQGVCEVCAVTPGTVAEAVRFLPGCLPAEQVLSLEGKTFAGILADLRALARAAGVRERGEALAAESERRWNAIRPVGVQVPEPPRVLTLEWVDPPFYGGHWVPEQVAQAGGKDVLGHAGRDSGRTSWEDVVQLDPDVIVVMCCGYGLSDNAEFARQVLSHPELRAVRAGQVWGVDANAHFSRPSLGVVRGAEVLAALLRGEESAGESVRVRAELEHHHHHH”, for which the “soluble on expression in E. coli” value is recorded as “not soluble”.

For the sequence “MGERKGQNFYYPPDFNYKTHKSLNGYHGTHALRERAKKIDQGILVIRFEMPFNIWCLGCHNHVGMGVRYNAEKKKIGMYYTTPLHEFRMKCHLCDNYYVIRTDPKNFDYELVEGCSRQELRFDPTDIAQIGAVDRGFTQKLAADAMFKKEHEAEDKDKAATEEGRVDKLEWIQERMRDDFTANSFLRAQFRNEKKSLNETRARDANLRDKLSIGTTQLLPETEEDRRIASMMTRYRDTKTHDDHLESSRDRIESRRIFRRPEETDTPSTSSGSSGGAVPSASERLKATMKAERDKRINASFSTAGTSSATQKLLGIKRKSASSLGVQIKKAAPENSSLQDEEPAVEKPNISNPISLIAQEYGNSSDDSD”, the “soluble on expression in E. coli” value is “not soluble”.

Consider “MGESGTKSRFPIRVQLEANKQYYWCRCGLSQSQPFCDGAHRGTGMNPVVFVVRETSPVWLCVCKETKNIPFCDCFRTDLEHHHHHH”, for which the “soluble on expression in E. coli” value is “not soluble”.

Take “MGFAKPPWGGKLKGVVRILGGKARGVALKVPASARPSPVRLRKALFDYLRLRYPRRGRFLDLFAGSGAVGLEAASEGWEAVLVEKDPEAVRLLKENVRRTGLGARVVALPVEVFLPEAKAQGERFTVAFMAPPYAMDLAALFGELLASGLVEAGGLYVLQHPKDLYLPLGERRVYGENALTLVEV”: the “soluble on expression in E. coli” value is reported as “soluble”.

“MGFWCRMSENQEQEEVITVRVQDPRVQNEGSWNSYVDYKIFLHTNSKAFTAKTSCVRRRYREFVWLRKQLQRNAGLVPVPELPGKSTFFGTSDEFIEKRRQGLQHFLEKVLQSVVLLSDSQLHLFLQSQLSVPEIEACVQGRSTMTVSDAILRYAMSNCGWAQEERQSSSHLAKGDQPKSCCFLPRSGRRSSPSPPPSEEKDHLEVWAPVVDSEVPSLESPTLPPLSSPLCCDFGRPKEGTSTLQSVRRAVGGDHAVPLDPGQLETVLEK”: the “soluble on expression in E. coli” value was “soluble”.

As for “MGGEGPGSDDIVKKMAQLMMQGAVMLDKTCPADGLPLFKLKTGDVVCPVHGKVVIVASDEEARDVEVEEIIREVRYRAARNVMKGLEEDNVDTVSKWLGVLETAERILAIRRGSRQGQGSVRGEGRESK”, the “soluble on expression in E. coli” value is given as “not soluble”.

Take “MGGLFTGIALDSAGHDVTIAEQSAGDLRSRGGGIVAQQSIRQFLSRHDIVDPANITTRASERRFLTADGDVRTSTPDSMVFTSWDAVYRQLRAAFPDDRYHTGQTVTGVRATDGTVTFSDGDRTTADLVVAADGGQSTARAQLFPDADPEFADYVAWRGVVSEAELSDAVIDAFDGRFTFYQGEQMLILAYFIPGEDGNTAPGDRRLNWVWYDTLSGRERETIFTDTTGTSQQFSVSPGQLRDPVESHQRERAAETLPPVFTDLVATTAAPFVQAIYDLQSPQMTVDRVCLVGDAAFVARPHTAAGTSKAASDAVELKAALDRHSSLGGALASWDDARTDYGARLVAQGKRMGDERLSLGSLEHHHHHH”: the “soluble on expression in E. coli” value is listed as “not soluble”.

As to “MGGRSRWEIAQESTLALARKCEQFDPDGITVYLFSGKFKRYDDVTSAKVAQIFLENDPAGTTNLAGVLQDALNNYFQRKAAGKTKPNGETILVITDGEPDDRKAVFETIIHATRQMERDEELGISMIQVGSDAQATKFLKALDDQLQSVGAKFDICDTITLEDLEDMSLADVLMNAITDLEHHHHHH”, the “soluble on expression in E. coli” value is “not soluble”.

On to “MGGSHHHHHHGMASALYAKGGKGSAVPSDSQAREKLALYVYEYLLHIGAQKSAQTFLSEIRWEKNITLGEPPGFLHSWWCVFWDLYCAAPDRREACEHSGEAKAFQDYSAAAAPSPVMGSMAPGDTMAAGSMAAGFFQGPPGSQPSPHNPNAPMMGPHGQPFMSPRFPGGPRPTLRMPSQPPAGLPGSQPLLPGAMEPSPRAQGHPSMGGPMQRVTPPRGMASVGPQSYGGGMRPPPNSLAGPGLPAMNMGPGVRGPWASPSGNSIPYSSSSPGSYTGPPGGGGPPGTPIMPSPGDSTNSSENMYTIMNPIGQGAGRANFPLGPGPEGPMAAMSAMEPHHVNGSLGSGDMDGLPKSSPGAVAGLSNAPGTPRDDGEMAAAGTFLHPFPSESYSPGMTMSV”, for which the “soluble on expression in E. coli” value is “not soluble”.

For the sequence “MGGSHHHHHHGMASAQETNQTPGPMLCSTGCGFYGNPRTNGMCSVCYKEHLQRQQNSGRMSPMGTASGSNSPTSDSASVQRADTSLNNCEGAAGSTSEKSRNVPVAALPVTQQMTEMSISREDKITTPKTEVSEPVVTQPSPSVSQPSTSQSEEKAPELPKPKKNRCFMCRKKVGLTGFDCRCGNLFCGLHRYSDKHNCPYDYKAEAAAKIRKENPVVVAEKIQRI”, the “soluble on expression in E. coli” value is listed as “not soluble”.

As for “MGGSHHHHHHGMASMTGGQQMGRTLYDDDDKDRWGSMNYVIIGGDAAGMSAAMQIVRNDENANVVTLEKGEIYSYAQCGLPYVISGAIASTEKLIARNVKTFRDKYGIDAKVRHEVTKVDTEKKIVYAEHTKTKDVFEFSYDRLLIATGVRPVMPEWEGRDLQGVHLLKTIPDAERILKTLETNKVEDVTIIGGGAIGLEMAETFVELGKKVRMIERNDHIGTIYDGDMAEYIYKEADKHHIEILTNENVKAFKGNERVEAVETDKGTYKADLVLVSVGVKPNTDFLEGTNIRTNHKGAIEVNAYMQTNVQDVYAAGDCATHYHVIKEIHDHIPIGTTANKQGRLAGLNMLDKRRAFKGTLGTGIIKFMNLTLARTGLNEKEAKGLHIPYKTVKVDSTNMAGYYPNAKPLYLKLLYRSDTKQLLGGQVIGEEGVDKRIDVIAMALFNKMSIHDLEDVDLSYAPPYNSVWDPIQQAARRAE”, the “soluble on expression in E. coli” value is given as “soluble”.

With “MGGSHHHHHHGMASTQLFLWEYGDLHLFGPNQRPAPCYDPCEAVLVESIPEGLDFPNASTGNPSTSQAWLGLLAGAHSSLDIASFYWTLTNNDTHTQEPSAQQGEEVLRQLQTLAPKGVNVRIAVSKPSGPQPQADLQALLQSGAQVRMVDMQKLTHGVLHTKFWVVDQTHFYLGSANMDWRSLTQVKELGVVMYNCSCLARDLTKIFEAYWFLGQAGSSIPSTWPRFYDTRYNQETPMEICLNGTPALAYLASAPPPLCPSGRTPDLKALLNVVDNARSFIYVAVMNYLPTLEFSHPHRFWPAIDDGLRRATYERGVKVRLLISCWGHSEPSMRAFLLSLAALRDNHTHSDIQVKLFVVPADEAQARIPYARVNHNKYMVTERATYIGTSNWSGNYFTETAGTSLLVTQNGRGGLRSQLEAIFLRDWDSPYIHDLDTSADSVGNACRLL”, the “soluble on expression in E. coli” value is “not soluble”.

For “MGHHHHHAYTLSKSGKEKEEVDEILEEEAEVDELKSPESVVQLLHIDPIEFEFGYGLIPLADANQGGDLLDRIVMIRRQLALELGLVIPVVRIRDNIALQPNEYRLKIKGNEVAKGELLLDHYLAMSPTPEDDLIEGIETVEPSFGLPAKWISEAVKDEADMLGYTVVDPASVVSTHITEKIKQHAHELIGRQETKQLIDHLKESYPVLVEEVTPNPLSVGDIQKVLAKLLKEKVSIRNLVTIFETLADYGKLTTDSDLLTEYTRQALAKQITAQFAKENEVLKVVTCSGRVEKAIADGVQQTEHGNYLSLEPDISESIVRSVAKEAEQLSLRQETAILLCSPPVRMYVKQLLERYFPDLPVLSYNELEANVEVQSIGVVDI”, the “soluble on expression in E. coli” value is “soluble”.

On to “MGHHHHHHENLYFQGMKKEKVEQILAEFQLQEEDLKKVMRRMQKEMDRGLRLETHEEASVKMLPTYVRSTPEGSEVGDFLSLDLGGTNFRVMLVKVGEGEEGQWSVKTKHQMYSIPEDAMTGTAEMLFDYISECISDFLDKHQMKHKKLPLGFTFSFPVRHEDIDKGILLNWTKGFKASGAEGNNVVGLLRDAIKRRGDFEMDVVAMVNDTVATMISCYYEDHQCEVGMIVGTGCNACYMEEMQNVELVEGDEGRMCVNTEWGAFGDSGELDEFLLEYDRLVDESSANPGQQLYEKLIGGKYMGELVRLVLLRLVDENLLFHGEASEQLRTRGAFETRFVSQVESDTGDRKQIYNILSTLGLRPSTTDCDIVRRACESVSTRAAHMCSAGLAGVINRMRESRSEDVMRITVGVDGSVYKLHPSFKERFHASVRRLTPSCEITFIESEEGSGRGAALVSAVACKKACMLGQ”, for which the “soluble on expression in E. coli” value was “soluble”.

The values above are taken from the DeepSol protein solubility set.
